Data from the supplement of paper PMC10567573.

B1: HDAC6 (parent)
chain: DLMETTQYMNEGELRVLADTYDSV

Variants of: B1
Test: protein stability index of a GFP-peptide fusion (GPS, HEK-293T) (PSI 1-6); higher = more stable
Conditions: c terminus: a fixed tail appended
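Note: lentivirally expressed fusions sorted by FACS into six bins by GFP to DsRed ratio, PSI derived from sequencing read proportions per bin multiplied by bin number.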

Row | Variant | protein stability index
1 | DLMETTEYMNEGELRVLADTYDSV | 1.97
2 | DLMETTDYMNEGELRVLADTYDSV | 2.35
3 | DLMETTYYMNEGELRVLADTYDSV | 2.52
4 | DLMETTVYMNEGELRVLADTYDSV | 1.67
5 | DLMETTHYMNEGELRVLADTYDSV | 1.14
6 | DLMETTRYMNEGELRVLADTYDSV | 1.14
7 | DLMETTNYMNEGELRVLADTYDSV | 2.12
8 | DLMETTTYMNEGELRVLADTYDSV | 2.37
9 | DLMETTPYMNEGELRVLADTYDSV | 3.69
10 | DLMETTGYMNEGELRVLADTYDSV | 2.05
11 | DLMETTLYMNEGELRVLADTYDSV | 2.12
12 | DLMETTKYMNEGELRVLADTYDSV | 2.12
13 | DLMETTSYMNEGELRVLADTYDSV | 2.02
14 | DLMETTAYMNEGELRVLADTYDSV | 1.53
15 | DLMETTQWMNEGELRVLADTYDSV | 1.89
16 | DLMETTQMMNEGELRVLADTYDSV | 4.29
17 | DLMETTQCMNEGELRVLADTYDSV | 4.07
18 | DLMETTQGMNEGELRVLADTYDSV | 4.5
19 | DLMETTQHMNEGELRVLADTYDSV | 4.78
20 | DLMETTQLMNEGELRVLADTYDSV | 4.27
21 | DLMETTQRMNEGELRVLADTYDSV | 3.66
22 | DLMETTQSMNEGELRVLADTYDSV | 5.09
23 | DLMETTQKMNEGELRVLADTYDSV | 4.56
24 | DLMETTQFMNEGELRVLADTYDSV | 1.65

Row | Variant | protein stability index
25 | DLMETTQDMNEGELRVLADTYDSV | 4.62
26 | DLMETTQEMNEGELRVLADTYDSV | 4.21
27 | DLMETTQPMNEGELRVLADTYDSV | 5.51
28 | DLMETTQQMNEGELRVLADTYDSV | 4.22
29 | DLMETTQTMNEGELRVLADTYDSV | 4.36
30 | DLMETTQIMNEGELRVLADTYDSV | 4.19
31 | DLMETTQAMNEGELRVLADTYDSV | 3.88
32 | DLMETTQNMNEGELRVLADTYDSV | 4.67
33 | DLMETTQYMNEGRLRVLADTYDSV | 3.63
34 | DLMETTQYMNEGDLRVLADTYDSV | 3.9
35 | DLMETTQYMNEGTLRVLADTYDSV | 3.84
36 | DLMETTQYMNEGYLRVLADTYDSV | 2.83
37 | DLMETTQYMNEGKLRVLADTYDSV | 3.69
38 | DLMETTQYMNEGMLRVLADTYDSV | 2.65
39 | DLMETTQYMNEGNLRVLADTYDSV | 3.96
40 | DLMETTQYMNEGFLRVLADTYDSV | 2.66
41 | DLMETTQYMNEGVLRVLADTYDSV | 3.53
42 | DLMETTQYMNEGWLRVLADTYDSV | 2.32
43 | DLMETTQYMNEGPLRVLADTYDSV | 3.74
44 | DLMETTQYMNEGHLRVLADTYDSV | 3.2
45 | DLMETTQYMNEGLLRVLADTYDSV | 2.63
46 | DLMETTQYMNEGALRVLADTYDSV | 3.38
47 | DLMETTQYMNEGQLRVLADTYDSV | 4.13
48 | DLMETTQYMNEGGLRVLADTYDSV | 4.06

Row | Variant | protein stability index
49 | DLMETTQYMNEGCLRVLADTYDSV | 3.37
50 | DLMETTQYMNEGILRVLADTYDSV | 2.47
51 | DLMETTQYMNEGSLRVLADTYDSV | 3.56
52 | DLMETTQYMNEYELRVLADTYDSV | 2.62
53 | DLMETTQYMNEMELRVLADTYDSV | 3.18
54 | DLMETTQYMNEAELRVLADTYDSV | 2.33
55 | DLMETTQYMNEDELRVLADTYDSV | 4.79
56 | DLMETTQYMNEIELRVLADTYDSV | 2.9
57 | DLMETTQYMNEQELRVLADTYDSV | 4.16
58 | DLMETTQYMNERELRVLADTYDSV | 3.71
59 | DLMETTQYMNEEELRVLADTYDSV | 4.82
60 | DLMETTQYMNEFELRVLADTYDSV | 2.85
61 | DLMETTQYMNEVELRVLADTYDSV | 2.85
62 | DLMETTQYMNEKELRVLADTYDSV | 3.87
63 | DLMETTQYMNELELRVLADTYDSV | 3.56
64 | DLMETTQYMNESELRVLADTYDSV | 3.58
65 | DLMETTQYMNENELRVLADTYDSV | 4.08
66 | DLMETTQYMNEWELRVLADTYDSV | 2.03
67 | DLMETTQYMNEPELRVLADTYDSV | 4.74
68 | DLMETTQYMNEHELRVLADTYDSV | 3.46
69 | DLMETTQYMNECELRVLADTYDSV | 3.07
70 | DLMETTQYMNETELRVLADTYDSV | 3.49
71 | DLMETTQYMNEGEVRVLADTYDSV | 2.83
72 | DLMETTQYMNEGEYRVLADTYDSV | 1.87

Row | Variant | protein stability index
73 | DLMETTQYMNEGEPRVLADTYDSV | 4.29
74 | DLMETTQYMNEGETRVLADTYDSV | 3.56
75 | DLMETTQYMNEGEFRVLADTYDSV | 1.74
76 | DLMETTQYMNEGEGRVLADTYDSV | 2.92
77 | DLMETTQYMNEGEERVLADTYDSV | 2.07
78 | DLMETTQYMNEGEMRVLADTYDSV | 1.62
79 | DLMETTQYMNEGEARVLADTYDSV | 2.11
80 | DLMETTQYMNEGEKRVLADTYDSV | 2.96
81 | DLMETTQYMNEGESRVLADTYDSV | 2.21
82 | DLMETTQYMNEGEDRVLADTYDSV | 2.32
83 | DLMETTQYMNEGEQRVLADTYDSV | 2.28
84 | DLMETTQYMNEGEIRVLADTYDSV | 2.26
85 | DLMETTQYMNEGEHRVLADTYDSV | 2.29
86 | DLMETTQYMNEGENRVLADTYDSV | 3.03
87 | DLMETTQYMNEGEWRVLADTYDSV | 2.48
88 | DLMETTQYMNEGECRVLADTYDSV | 1.97
89 | DLMETMQYMNEGELRVLADTYDSV | 1.63
90 | DLMETAQYMNEGELRVLADTYDSV | 1.75
91 | DLMETGQYMNEGELRVLADTYDSV | 3.57
92 | DLMETPQYMNEGELRVLADTYDSV | 2.3
93 | DLMETRQYMNEGELRVLADTYDSV | 2.24
94 | DLMETFQYMNEGELRVLADTYDSV | 1.44
